Each block holds one molecule with its values, some of them ahead of it.
Experiments:
[1] = target: CFP-N198-TRPV6 (human ('hTRPV6' in p-0012; the printed GenBank AF160798 is rat, from memory)); assay: FRET or BRET
[2] = target: YFP-TRPV6 (human ('hTRPV6' in p-0012; the printed GenBank AF160798 is rat, from memory)); assay: FRET or BRET
YFP-TRPV6 (human ('hTRPV6' in p-0012; the printed GenBank AF160798 is rat, from memory)), sequence (Q9R186 whole entry): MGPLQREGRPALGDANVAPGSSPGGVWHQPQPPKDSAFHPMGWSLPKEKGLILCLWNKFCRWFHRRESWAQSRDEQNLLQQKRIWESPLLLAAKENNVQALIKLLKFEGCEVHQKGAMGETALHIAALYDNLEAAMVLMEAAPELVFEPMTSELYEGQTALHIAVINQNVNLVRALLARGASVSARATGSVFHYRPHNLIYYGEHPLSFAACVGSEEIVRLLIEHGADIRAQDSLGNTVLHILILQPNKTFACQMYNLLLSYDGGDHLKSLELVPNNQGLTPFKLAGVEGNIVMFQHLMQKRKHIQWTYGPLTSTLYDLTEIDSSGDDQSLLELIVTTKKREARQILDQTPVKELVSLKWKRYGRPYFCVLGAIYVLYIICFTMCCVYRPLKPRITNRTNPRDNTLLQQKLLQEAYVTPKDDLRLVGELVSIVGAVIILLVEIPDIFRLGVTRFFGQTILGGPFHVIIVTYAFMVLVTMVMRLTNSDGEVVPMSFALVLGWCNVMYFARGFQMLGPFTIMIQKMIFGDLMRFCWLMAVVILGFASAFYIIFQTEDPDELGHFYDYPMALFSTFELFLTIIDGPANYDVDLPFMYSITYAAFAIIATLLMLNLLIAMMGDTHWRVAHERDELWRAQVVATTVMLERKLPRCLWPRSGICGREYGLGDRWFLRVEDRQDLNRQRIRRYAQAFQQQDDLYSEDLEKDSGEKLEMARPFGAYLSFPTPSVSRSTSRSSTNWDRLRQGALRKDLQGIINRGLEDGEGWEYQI

CFP-N198-TRPV6 (human ('hTRPV6' in p-0012; the printed GenBank AF160798 is rat, from memory)), sequence (Q9R186 whole entry): as above

FRET [1]: 0.11
Molecule: YFP-N193-TRPC1 (from UniProt P48995-2 1-193) (domain or fragment)

FRET [2]: 0.07
Molecule: CFP-TRPC1 (from UniProt P48995-2 1-759) (natural protein)

FRET [2]: 0.02
Molecule: CFP-TRPC4 (from UniProt Q9QUQ5-1 1-974) (natural protein)

FRET [2]: 0.02
Molecule: CFP-TRPC5 (from UniProt Q9QX29 1-975) (natural protein)

FRET [2]: 0.01
B1: CFP-TRPC3 (natural protein)
chain: MSTKVRKCKEQARVTFPAPEEEEDEGEDEGAEPQRRRRGWRGVNGGLEPRSAPSQREPHGYCPPPFSHGPDLSMEGSPSLRRMTVMREKGRRQAVRGPAFMFNDRGTSLTAEEERFLDAAEYGNIPVVRKMLEESKTLNVNCVDYMGQNALQLAVGNEHLEVTELLLKKENLARIGDALLLAISKGYVRIVEAILNHPGFAASKRLTLSPCEQELQDDDFYAYDEDGTRFSPDITPIILAAHCQKYEVVHMLLMKGARIERPHDYFCKCGDCMEKQRHDSFSHSRSRINAYKGLASPAYLSLSSEDPVLTALELSNELAKLANIEKEFKNDYRKLSMQCKDFVVGVLDLCRDSEEVEAILNGDLESAEPLEVHRHKASLSRVKLAIKYEVKKFVAHPNCQQQLLTIWYENLSGLREQTIAIKCLVVLVVALGLPFLAIGYWIAPCSRLGKILRSPFMKFVAHAASFIIFLGLLVFNASDRFEGITTLPNITVTDYPKQIFRVKTTQFTWTEMLIMVWVLGMMWSECKELWLEGPREYILQLWNVLDFGMLSIFIAAFTARFLAFLQATKAQQYVDSYVQESDLSEVTLPPEIQYFTYARDKWLPSDPQIISEGLYAIAVVLSFSRIAYILPANESFGPLQISLGRTVKDIFKFMVLFIMVFFAFMIGMFILYSYYLGAKVNAAFTTVEESFKTLFWSIFGLSEVTSVVLKYDHKFIENIGYVLYGIYNVTMVVVLLNMLIAMINSSYQEIEDDSDVEWKFARSKLWLSYFDDGKTLPPPFSLVPSPKSFVYFIMRIVNFPKCRRRRLQKDIEMGMGNSKSRLNLFTQSNSRVFESHSFNSILNQPTRYQQIMKRLIKRYVLKAQVDKENDEVNEGELKEIKQDISSLRYELLEDKSQATEELAILIHKLSEKLNPSMLRCE
